Measurements published in patent US20250250357A1 (NANJING ZAIMING PHARMACEUTICAL, published 2025).

T1: human MSLN-R1-his protein (human, UniProt Q13421 296-390)
T1 construct: Region 1 of human mesothelin, made in HEK293E cells, His-tagged; also called human MSLN-R1 protein; hMSLN-R1-his; not shown: His tag
T1 chain: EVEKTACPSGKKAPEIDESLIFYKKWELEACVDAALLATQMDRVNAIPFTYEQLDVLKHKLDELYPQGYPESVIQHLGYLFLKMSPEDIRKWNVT

T2: human MSLN-R1-his protein (human, UniProt Q13421 296-390)
T2 construct: Made in HEK293E cells, purified on nickel column; also called hMSLN-R1-his; human MSLN-R1 protein; not shown: His tag
T2 chain: T1 chain

B1: S009-F8-7.5 (antibody, human IgG1, kappa, V domains shown)
VH: DVQLQESGPGLVKPSQSLSLTCSVTGYSITSGYYWNWIRQFPGNKLEWMAYIRYDGSNNYNPSLKNRISIIRDTSKNQFFLRLNSVTTEDTATYYCAKSYYGMDDWGQGISVTVSS
VL: DIQMTQSPASLSASVGETVTITCRTSGDIHNYLAWYQQKQGKSPQLLVYKAKTLENGVPSRFTGSGSGTQFSLKIDSLQPEDFGTYYCQHFWTTPYTFGGGTKLEIKR
B2: S009-F7.53.2 chimeric antibody (antibody, human IgG1, kappa, V domains shown)
VH: EVQLQQSGPELVKPGASVKIPCKTSGYTFTDYNMDWVKQSHGKSLEWIGDINPNTDGAIYNQKFQNKATLTVDKSSSTAYMELRSLTSEDTAVYYCTRRKLGRKFFDYWGQGTTLTVSS
VL: QIVLTQSPAIMSASPGEQVTMTCSASSSVGYMNWYQQKPGSSPRLLIYDTSNLASGVPVHFSGSGSGTSYSLTISRMEAAFAATYYCQQWYVYPYTFGGGTKLEIKR
notes: Human-murine chimeric antibody, human IgG1/kappa constant regions
B3: S009-F7.61.21 chimeric antibody (antibody, human IgG1, kappa, V domains shown)
VH: DVQLQQSGPELVEPGASVRIPCKAAGHTFTDYNVDWVKQSHGQSLEWIGDVNPNTDGAIYNQKFEGKATLTVDTSSSTAYMELRSLTSEDTAVYFCARRRLGQGGFDSWGQGTTLTVSS
VL: QVVLTQSPAIMSASPGEKVTLTCGASSSLISKYLYWYQQKPGSSPKLWIYSTSNLASGVPARFSGSGSGTSYSLTISSMEAEDAASYFCHQWSSYPYTFGGGTKVEIKR
notes: as for B2
B4: S009-F7.67.12 chimeric antibody (antibody, human IgG1, kappa, V domains shown)
VH: QVQLQQPGTELVKPGASVRLSCRASGYSFSSYWMHWVKQRPGQGLEWLGNINPTTGDINYNEKFRNRATLAVDKSSTTAYLQLTSLTSEDSAVYFCVRHDGFLWGQGTTLTVSS
VL: DIQMTQSPASLSASVGETVTITCRASENIYSYLAWYQQKQGKSPQLLVYYAKTLAEGVSSRFSGSGSGTQFSLKINSLQPEDFGTYYCQHQFGTPRTFGGGTKLEIRR
notes: as for B2
B5: S009-F7.66.12 chimeric antibody (antibody, human IgG1, kappa, V domains shown)
VH: QIPLQQSGPELVKPGASVRISCKASDYAFSSSWMNWVKQRPEKGLEWIGRIFVESGNTHYNDKFNGKATLTADKSSRTAYIQLSSLTSEDSAVYFCTRENIFYHGHSSWFAYWGQGTLVTVSA
VL: DIVLTQSPASLVVSLGQRATISCRAGESVDDFGISYVHWYQQKPGQPPKLLIYRAANLESGIPARFSGSGSRTDFTLTINPVETDDVAIYYCQQNNKDPFTFGSGTKLEIKR
notes: as for B2
B6: S009-F7.65.13 chimeric antibody (antibody, human IgG1, kappa, V domains shown)
VH: EVQLQQSGPELVKPGTSVKILCKASGDTFTAYNMDWVKQRHGQSLEWIGDINPNTDSTIYNQKFEGKAILTVDKSSSTAYMELRSLTSEDTAVYYCARRKLGRGYFDYWGQGTTLTVSS
VL: QIVLTQSPAIMSASPGEKVTMTCSVNLSVRYIYWYQQKPGSSPRLLIHDTSNLASGVPVRFSGSGSGTSYSLTISRMEAEDAATYYCQQWSSFPYTFGGGTKLEIKR
notes: as for B2
B7: S009-F7.69.8 chimeric antibody (antibody, human IgG1, kappa, V domains shown)
VH: EVHLQQSGPELVKPGASVRIPCKASGYTFTDYNMDWVKQSHGKSLEWIGDINPDNGGTIYTQKFKGKATLTVDKSSSTAYMELRSLTSEDTAVYYCARRLHYYGSSGLDYWGQGTTLTVSS
VL: DIQMTQSPASLSAYVGETVTITCRASGNIHNYLAWYQQKQGKSPQLLVYNAKTLADGVPSRFSGSGSGTQYSLKINSLQPEDFGSYYCQHFWSTVWTFGGGTKLEIKR
notes: as for B2

Target: T1, human MSLN-R1-his protein
Experiment: ELISA on coated MSLN-R1; antibody 10 nM
Experimental: (§1) The plate was sealed with a plastic film and incubated at 4° C. overnight. The next day, the plate was washed twice with PBST, and a blocking buffer [PBS+2% (w/w) BSA] was added for blocking at room temperature for 2 h. The blocking buffer was discarded, and a chimeric antibody or negative control antibody serially diluted from 100 nM was added at 50 μL/well. After incubation at 37° C. for 2 h, the plate was washed 3 times with PBST. […] After incubation at 37° C. for 2 h, the plate was washed 5 times with PBST. A TMB substrate was added at 50 μL/well for incubation at room temperature for 5-10 min, and then a stop solution (1.0 N HCl) was added at 50 μL/well.
B1 gave an OD450 of 0.06 OD450.

These binders were tested against T3, human MSLN-FL-his protein (human, UniProt Q13421 296-580) (assay: ELISA, coated antigen, antibody 20 nM).
T3 construct: Made in HEK293E cells, purified on nickel column; also called hMSLN-FL-his; human MSLN full-length protein; not shown: His tag
T3 sequence (Q13421 other isoform, or with tags, fused parts or gaps): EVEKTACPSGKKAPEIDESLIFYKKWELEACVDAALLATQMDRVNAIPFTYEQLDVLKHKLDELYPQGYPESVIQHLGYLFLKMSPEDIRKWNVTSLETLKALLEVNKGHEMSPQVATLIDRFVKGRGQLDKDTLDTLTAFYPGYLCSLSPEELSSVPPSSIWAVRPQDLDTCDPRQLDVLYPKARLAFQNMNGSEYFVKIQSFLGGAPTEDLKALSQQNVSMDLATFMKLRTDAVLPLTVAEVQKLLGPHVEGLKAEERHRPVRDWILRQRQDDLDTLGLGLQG
With B2 the OD450 was 2.2. In the case of B3, the OD450 is reported as 2.14. Binder B4 has an OD450 of 2.23. Binder B5 has an OD450 of 2.2. In the case of B6, the OD450 is reported as 2.12. In the case of B7, the OD450 is reported as 2.26.

Each binder was assayed against T4, human MSLN-R2-his protein (human, UniProt Q13421 391-486) (assay: ELISA on coated MSLN-R2; antibody 0.0001 nM).
T4 construct: Region 2 of human mesothelin, made in HEK293E cells, His-tagged; also called human MSLN-R2 protein; hMSLN-R2-his; not shown: His tag
T4 sequence (Q13421 other isoform, or with tags, fused parts or gaps): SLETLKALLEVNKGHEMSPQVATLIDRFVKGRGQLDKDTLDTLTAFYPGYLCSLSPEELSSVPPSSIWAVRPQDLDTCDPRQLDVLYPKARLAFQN
Binder B1 has an OD450 of 0.06 OD450.

Target: T1, human MSLN-R1-his protein
Experiment: ELISA on coated MSLN-R1; antibody 0.1 nM
Experimental: as §1
Work on B1 yielded an OD450 of 0.05 OD450.

These binders were tested against T4, human MSLN-R2-his protein (assay: ELISA on coated MSLN-R2; no antibody (blank)).
Experimental: as §1
B1 showed an OD450 of 0.05 OD450.

Target: T2, human MSLN-R1-his protein
Experiment: ELISA, coated antigen, antibody 0.0002 nM
Experimental: as §1
B2 was tested, and the OD450 was 0.05. B3 showed an OD450 of 0.05. Work on B4 yielded an OD450 of 0.04. Work on B5 yielded an OD450 of 0.06. Binder B6 has an OD450 of 0.05. B7 showed an OD450 of 0.05.

These binders were tested against T3, human MSLN-FL-his protein (assay: ELISA, coated antigen, antibody 0.2 nM).
Experimental: as §1
With B2 the OD450 was 1.53. B3 showed an OD450 of 1.96. For B4, the OD450 was 1.78. Binder B5 has an OD450 of 2.24. With B6 the OD450 was 2.1. In the case of B7, the OD450 is reported as 2.15.

These binders were tested against T4, human MSLN-R2-his protein (assay: ELISA on coated MSLN-R2; antibody 10 nM).
Experimental: as §1
In the case of B1, the OD450 is reported as 2.18 OD450.

These binders were tested against T4, human MSLN-R2-his protein (assay: ELISA on coated MSLN-R2; antibody 0.001 nM).
Experimental: as §1
For B1, the OD450 was 0.09 OD450.

What follows are binders tested against T3, human MSLN-FL-his protein (assay: ELISA, coated antigen, no antibody (blank)).
With B2 the OD450 was 0.06. B3 was tested, and the OD450 was 0.06. Binder B4 has an OD450 of 0.05. In the case of B5, the OD450 is reported as 0.07. With B6 the OD450 was 0.06. For B7, the OD450 was 0.06.

Target: T2, human MSLN-R1-his protein
Experiment: ELISA, coated antigen, antibody 0.002 nM
Experimental: as §1
Work on B2 yielded an OD450 of 0.05. Binder B3 has an OD450 of 0.05. With B4 the OD450 was 0.05. In the case of B5, the OD450 is reported as 0.04. B6 showed an OD450 of 0.05. With B7 the OD450 was 0.05.

Each binder was assayed against T4, human MSLN-R2-his protein (assay: ELISA on coated MSLN-R2; antibody 0.01 nM).
With B1 the OD450 was 0.31 OD450.

Target: T1, human MSLN-R1-his protein
Experiment: ELISA on coated MSLN-R1; no antibody (blank)
Experimental: as §1
Binder B1 has an OD450 of 0.05 OD450.

Target: T1, human MSLN-R1-his protein
Experiment: ELISA on coated MSLN-R1; antibody 0.0001 nM
Experimental: as §1
In the case of B1, the OD450 is reported as 0.04 OD450.

Target: T1, human MSLN-R1-his protein
Experiment: ELISA on coated MSLN-R1; antibody 0.01 nM
B1 showed an OD450 of 0.04 OD450.

What follows are binders tested against T3, human MSLN-FL-his protein (assay: ELISA, coated antigen, antibody 0.002 nM).
B2 showed an OD450 of 0.12. For B3, the OD450 was 0.23. Binder B4 has an OD450 of 0.23. In the case of B5, the OD450 is reported as 1.19. With B6 the OD450 was 0.52. B7 showed an OD450 of 0.43.

What follows are binders tested against T4, human MSLN-R2-his protein (assay: ELISA on coated MSLN-R2; antibody 0.1 nM).
Experimental: as §1
Work on B1 yielded an OD450 of 1.18 OD450.

Target: T1, human MSLN-R1-his protein
Experiment: ELISA on coated MSLN-R1; antibody 1 nM
B1 was tested, and the OD450 was 0.05 OD450.

Target: T2, human MSLN-R1-his protein
Experiment: ELISA, coated antigen, antibody 200 nM
Experimental: as §1
B2 gave an OD450 of 0.07. B3 showed an OD450 of 0.07. With B4 the OD450 was 0.07. For B5, the OD450 was 0.13. B6 gave an OD450 of 0.08. Work on B7 yielded an OD450 of 0.11.

Target: T1, human MSLN-R1-his protein
Experiment: ELISA on coated MSLN-R1; antibody 100 nM
With B1 the OD450 was 0.12 OD450.

Each binder was assayed against T3, human MSLN-FL-his protein (assay: ELISA, coated antigen, antibody 0.02 nM).
Experimental: as §1
With B2 the OD450 was 0.47. B3 showed an OD450 of 0.95. B4 showed an OD450 of 0.75. B5 gave an OD450 of 1.77. In the case of B6, the OD450 is reported as 1.35. With B7 the OD450 was 1.42.

These binders were tested against T4, human MSLN-R2-his protein (assay: ELISA on coated MSLN-R2; antibody 1 nM).
Experimental: as §1
For B1, the OD450 was 1.85 OD450.

Each binder was assayed against T3, human MSLN-FL-his protein (assay: ELISA, coated antigen, antibody 0.0002 nM).
Experimental: as §1
With B2 the OD450 was 0.06. For B3, the OD450 was 0.09. For B4, the OD450 was 0.13. In the case of B5, the OD450 is reported as 0.77. B6 showed an OD450 of 0.24. B7 was tested, and the OD450 was 0.13.

What follows are binders tested against T3, human MSLN-FL-his protein (assay: ELISA, coated antigen, antibody 2 nM).
B2 gave an OD450 of 2.1. B3 showed an OD450 of 2.14. Work on B4 yielded an OD450 of 2.07. In the case of B5, the OD450 is reported as 2.23. B6 gave an OD450 of 2.11. For B7, the OD450 was 2.29.

Each binder was assayed against T3, human MSLN-FL-his protein (assay: ELISA, coated antigen, antibody 200 nM).
Experimental: as §1
B2 was tested, and the OD450 was 2.6. B3 was tested, and the OD450 was 2.15. Binder B4 has an OD450 of 1.96. Binder B5 has an OD450 of 2.1. Binder B6 has an OD450 of 2.13. For B7, the OD450 was 2.1.

Target: T2, human MSLN-R1-his protein
Experiment: ELISA, coated antigen, no antibody (blank)
Experimental: as §1
B2 gave an OD450 of 0.06. B3 gave an OD450 of 0.07. B4 gave an OD450 of 0.07. With B5 the OD450 was 0.06. For B6, the OD450 was 0.07. For B7, the OD450 was 0.07.

Target: T2, human MSLN-R1-his protein
Experiment: ELISA, coated antigen, antibody 20 nM
Experimental: as §1
With B2 the OD450 was 0.05. B3 showed an OD450 of 0.05. B4 showed an OD450 of 0.05. B5 gave an OD450 of 0.06. For B6, the OD450 was 0.05. Work on B7 yielded an OD450 of 0.06.

Target: T2, human MSLN-R1-his protein
Experiment: ELISA, coated antigen, antibody 2 nM
Experimental: as §1
B2 showed an OD450 of 0.05. In the case of B3, the OD450 is reported as 0.05. With B4 the OD450 was 0.05. B5 showed an OD450 of 0.05. B6 showed an OD450 of 0.05. In the case of B7, the OD450 is reported as 0.04.

Target: T2, human MSLN-R1-his protein
Experiment: ELISA, coated antigen, antibody 0.02 nM
Experimental: as §1
B2 showed an OD450 of 0.04. For B3, the OD450 was 0.05. B4 gave an OD450 of 0.05. B5 showed an OD450 of 0.04. In the case of B6, the OD450 is reported as 0.05. B7 gave an OD450 of 0.04.

Target: T2, human MSLN-R1-his protein
Experiment: ELISA, coated antigen, antibody 0.2 nM
Experimental: as §1
For B2, the OD450 was 0.04. For B3, the OD450 was 0.05. B4 gave an OD450 of 0.05. Binder B5 has an OD450 of 0.04. Binder B6 has an OD450 of 0.05. In the case of B7, the OD450 is reported as 0.05.

The binders below were run against T4, human MSLN-R2-his protein (assay: ELISA on coated MSLN-R2; antibody 100 nM).
Experimental: as §1
With B1 the OD450 was 2.32 OD450.

Target: T1, human MSLN-R1-his protein
Experiment: ELISA on coated MSLN-R1; antibody 0.001 nM
B1 was tested, and the OD450 was 0.05 OD450.
